This assay deals with T1, GST-Dun1 (Saccharomyces cerevisiae, UniProt P39009 1-513).
T1 construct: Control GST fusion; The species is stated only in the background paragraph, not where the pull-down is told; not shown: glutathione S-transferase (GST) fusion partner
T1 sequence (looked up): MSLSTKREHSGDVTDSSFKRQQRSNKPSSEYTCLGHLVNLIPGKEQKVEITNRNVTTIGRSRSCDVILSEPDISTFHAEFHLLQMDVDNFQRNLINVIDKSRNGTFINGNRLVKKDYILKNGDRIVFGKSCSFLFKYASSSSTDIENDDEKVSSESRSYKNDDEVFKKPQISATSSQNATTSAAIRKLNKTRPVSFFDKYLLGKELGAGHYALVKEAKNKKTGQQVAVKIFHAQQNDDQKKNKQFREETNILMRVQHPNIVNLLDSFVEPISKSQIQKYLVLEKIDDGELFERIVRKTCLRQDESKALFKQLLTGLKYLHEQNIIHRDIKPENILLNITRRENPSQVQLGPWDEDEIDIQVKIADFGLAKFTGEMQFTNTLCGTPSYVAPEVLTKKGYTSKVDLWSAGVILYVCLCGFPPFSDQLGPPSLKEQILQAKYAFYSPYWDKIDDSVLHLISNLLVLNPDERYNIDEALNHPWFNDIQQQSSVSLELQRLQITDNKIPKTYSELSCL
Put plainly: GST pull-down on glutathione beads from baculovirus extracts, immunoblot with anti Chk1 antibodies. On the technique in general: A western blot detects proteins with antibodies after separation by electrophoresis.

B1: His6-tagged hChk1 (enzyme)
chain: MAVPFVEDWDLVQTLGEGAYGEVQLAVNRVTEEAVAVKIVDMKRAVDCPENIKKEICINKMLNHENVVKFYGHRREGNIQYLFLEYCSGGELFDRIEPDIGMPEPDAQRFFHQLMAGVVYLHGIGITHRDIKPENLLLDERDNLKISDFGLATVFRYNNRERLLNKMCGTLPYVAPELLKRREFHAEPVDVWSCGIVLTAMLAGELPWDQPSDSCQEYSDWKEKKTYLNPWKKIDSAPLALLHKILVENPSARITIPDIKKDRWYNKPLKKGAKRPRVTSGGVSESPSGFSKHIQSNLDFSPVNSASSEENVKYSSSQPEPRTGLSLWDTSPSYIDKLVQGISFSQPTCPDHMLLNSQLLGTPGSSQNPWQRLVKRMTRFFTKLDADKSYQCLKETCEKLGYQWKKSCMNQVTISTTDRRNNKLIFKVNLLEMDDKILVDFRLSKGDGLEFKRHFLKIKGKLIDIVSSQKVWLPATHHHHHH
notes: Expressed in baculovirus; used as a crude baculovirus extract in the pull-down and purified in the kinase assay; also called hChk1-His6; His6-tagged hChk1 derivative
As for B1, the binding result is recorded as “no binding”.

The values above are taken from patent USRE40789 (BAYLOR COLLEGE OF MEDICINE, dated 2009).
